Test results from paper PMC5477842 (Science (New York, N.Y.), 2016).

Assays:
calmodulin = calmodulin (UniProt P0DP23 1-149); experiment: cryo-EM structure
cryo-EM structure = molecular target: the molecule itself; experiment: cryo-EM structure

binding result (calmodulin): binds
B1: Truncated rat Eag1 (rEag1Δ; Kv10.1 with residues 773-886 removed) (natural protein, UniProt Q63472 1-962, looked up)
chain: MTMAGGRRGLVAPQNTFLENIVRRSNDTNFVLGNAQIVDWPIVYSNDGFCKLSGYHRAEVMQKSSACSFMYGELTDKDTVEKVRQTFENYEMNSFEILMYKKNRTPVWFFVKIAPIRNEQDKVVLFLCTFSDITAFKQPIEDDSCKGWGKFARLTRALTSSRGVLQQLAPSVQKGENVHKHSRLAEVLQLGSDILPQYKQEAPKTPPHIILHYCVFKTTWDWIILILTFYTAILVPYNVSFKTRQNNVAWLVVDSIVDVIFLVDIVLNFHTTFVGPAGEVISDPKLIRMNYLKTWFVIDLLSCLPYDVINAFENVDEGISSLFSSLKVVRLLRLGRVARKLDHYIEYGAAVLVLLVCVFGLAAHWMACIWYSIGDYEIFDEDTKTIRNNSWLYQLALDIGTPYQFNGSGSGKWEGGPSKNSVYISSLYFTMTSLTSVGFGNIAPSTDIEKIFAVAIMMIGSLLYATIFGNVTTIFQQMYANTNRYHEMLNSVRDFLKLYQVPKGLSERVMDYIVSTWSMSRGIDTEKVLQICPKDMRADICVHLNRKVFKEHPAFRLASDGCLRALAMEFQTVHCAPGDLIYHAGESVDSLCFVVSGSLEVIQDDEVVAILGKGDVFGDVFWKEATLAQSCANVRALTYCDLHVIKRDALQKVLEFYTAFSHSFSRNLILTYNLRKRIVFRKISDVKREEEERMKRKNEAPLILPPDHPVRRLFQRFRQQKEARLAAERGGRDLDDLDVEKGNALTDHTSANHSLVKASVVTVRESPATPVSFYPIPEQTLQATVLEVKHELKEDIKALNAKMTSIEKQLSEILRILMSRGSSQSPQDTCEVSRPQSPESDRDIFGAS
modifications: N-acetyl glucosamine on N388 (density observed); glycosylation sites N388 and N406
stoichiometry N (cryo-EM structure): 4
